Values belong to the binder of their own block, whether it stands above or below them.
Experiments:
[1] = target: T1, human PD-L1-his tag protein (human, UniProt Q9NZQ7 19-238); assay: SPR (Biacore), affinity ranking, PDL1-His
T1 construct: also called human PD-L1-His protein; recombinant PD-L1 protein; not shown: his tag

[2] = target: T2, human PD-L1 over-expressed on CHOK1 cells (human, UniProt Q9NZQ7 19-290); assay: flow cytometry (MFI) on PDL1-CHOK1 cells; upper right panel
T2 construct: whole, on cells; also called PDL1-CHOK1 cells
Protocol: (§1) To evaluate the antigen binding property, the humanized antibodies were analyzed for their binding to PD-L1 overexpressed on mammalian cells by FACS. Briefly, PDL1-CHOK1 cells were firstly incubated with 3-fold serious diluted humanized antibodies starting at 15 μg/ml at 4° C. for 40 mins. After washed by PBS, the Alexa Fluor® 647 AffiniPure Goat Anti-Human IgG (H+L) antibody was added to each well and incubated at 4° C. for 30 mins. The MFI of Alexa Fluor® 647 was evaluated by FACSCanto.

[3] = target: T1, human PD-L1-his tag protein; assay: SPR (Biacore T200), mAb captured on Protein A chip, PD-L1-his injected
Protocol: The binding of the humanized antibodies to recombinant PD-L1 protein (human PD-L1-his tag) was tested by Biacore using a capture method. […] A serial dilution of human PD-L1-his tag protein was injected over captured antibody for 2 mins at a flow rate of 30 μl/min. The antigen was allowed to dissociate for 1500 s. All the experiment were carried out on a Biacore T200.

[4] = target: T3, human PD-L1-Fc protein (human, UniProt Q9NZQ7 19-238); assay: ELISA, antibody titrated on coated human PD-L1-Fc, OD 450nm; upper left panel
T3 construct: coating antigen of the ELISAs; also called rhPD-L1-Fc; not shown: Fc
Protocol: (§2) To evaluate antigen binding activity, the humanized antibodies were subjected to ELISA test. Briefly, microtiter plates were coated with human PD-L1-Fc protein at 0.5 μg/ml in PBS, 100 μl/well at 4° C. overnight, then blocked with 200 μl/well of 1% BSA. Three-fold dilutions of humanized antibodies starting from 10 μg/ml were added to each well and incubated for 1 hour at 37° C. The plates were washed with PBS/Tween and then incubated with mouse-anti-human IgG Fab antibody conjugated with Horse Radish Peroxidase (HRP) for 1 hour at 37° C. After washing, the plates were developed with TMB substrate and analyzed by spectrophotometer at OD 450 nm.

[5] = target: T3, human PD-L1-Fc protein; assay: receptor blocking ELISA: coated human PD-L1-Fc, blocked ligand biotin-labeled human PD-1-Fc (Bio-PD1), OD 450nm; middle left panel
Protocol: (§3) Briefly, microtiter plates were coated with human PD-L1-Fc protein at 0.5 μg/ml in PBS, 100 μl/well at 4° C. overnight, then blocked with 150 μl/well of 1% BSA at 37° C. for 2 hours. […] The plates were washed with PBS/Tween and then incubated with Streptavidin-HRP for 10 mins at 37° C. After washing, the plates were developed with TMB substrate and analyzed by spectrophotometer at OD 450 nm.

[6] = target: T3, human PD-L1-Fc protein; assay: receptor blocking ELISA: coated human PD-L1-Fc, blocked ligand biotin-labeled human CD80-Fc (Bio-CD80), OD 450nm; middle left panel
Protocol: as §3

[7] = target: rat PD-L1 protein (rat, UniProt D4AE25 19-239); assay: ELISA, coated rat PD-L1
Protocol: (§4) ELISA testing was carried out to evaluate the binding of chimeric antibodies to human, mouse, rat, and cynomolgus PD-L1, respectively.
(§5) Briefly, microtiter plates were coated with human, mouse, rat and cynomolgus PD-L1 proteins at 0.5 μg/ml in PBS, 100 μl/well at 4° C. overnight, then blocked with 150 μl/well of 1% BSA. Three-fold dilutions of chimeric antibodies starting from 10 μg/ml were added to each well and incubated for 1 hour at 37° C. The plates were washed with PBS/Tween and then incubate with mouse-anti-human IgG Fab antibody conjugated with Horse Radish Peroxidase (HRP) for 30 mins at 37° C. After washing, the plates were developed with TMB substrate and analyzed by spectrophotometer at OD 450 nm.

[8] = target: mouse PD-L1 protein (mouse, UniProt Q9EP73 19-239); assay: ELISA, coated mouse PD-L1
Protocol: as §4, §5

[9] = target: T2, human PD-L1 over-expressed on CHOK1 …; assay: flow cytometry on PDL1-CHOK1 cells
Protocol: After washing by PBS, Alexa Fluor® 647 AffiniPure Goat Anti-Human IgG (H+L) was added to each well and incubated at 4° C. for 30 mins. Samples were washed twice with FACS buffer. The mean florescence intensity (MFI) of Alexa Fluor® 647 was evaluated by FACSCanto.

[10] = target: cynomolgus PD-L1 protein (cynomolgus, UniProt G7PSE7 19-238); assay: ELISA, coated cynomolgus PD-L1
Protocol: as §4, §5

[11] = target: T3, human PD-L1-Fc protein; assay: ELISA, coated human PD-L1 (PD-L1-Fc per paragraph 110)
Protocol: as §3, with “1% BSA.” for “1% BSA at 37° C. for 2 hours.”, “with Mouse-anti-human IgG Fab antibody conjugated with Horse Radish Peroxidase (HRP)” for “with Streptavidin-HRP”, “for 30” for “for 10”
as §5

[12] = target: T1, human PD-L1-his tag protein; assay: SPR (Biacore T200), mAb captured on Protein A chip, PD-L1-his injected; remark: listed apart in the source
Protocol: A serial dilution of human PD-L1-his tag protein was injected over captured antibody for 2 mins at a flow rate of 30 μl/min. The antigen was allowed to dissociate for 480-1500 s. All the experiment were carried out on a Biacore T200. Data analysis was carried out using Biacore T200 evaluation software.

[13] = target: T3, human PD-L1-Fc protein; assay: competition ELISA, coated human PD-L1-Fc, biotin-labeled human PD-1-Fc as competitor
Protocol: as §3, with “BSA.” for “BSA at 37° C. for 2 hours.”

[14] = target: T2, human PD-L1 over-expressed on CHOK1 …; assay: flow cytometry (MFI) on PDL1-CHOK1 cells; upper left panel (with Hu47C6A3-1 to -3)
Protocol: as §1

[15] = target: T3, human PD-L1-Fc protein; assay: ELISA, antibody titrated on coated human PD-L1-Fc, OD 450nm; lower left panel (with Hu47C6A3-3)
Protocol: as §2

[16] = target: T3, human PD-L1-Fc protein; assay: ELISA, antibody titrated on coated human PD-L1-Fc, OD 450nm; upper left panel (with Hu47C6A3-1)
Protocol: as §2

[17] = target: T3, human PD-L1-Fc protein; assay: ELISA, antibody titrated on coated human PD-L1-Fc, OD 450nm; upper right panel (with Hu47C6A3-2)
Protocol: as §2

[18] = target: T3, human PD-L1-Fc protein; assay: receptor blocking ELISA: coated human PD-L1-Fc, blocked ligand biotin-labeled human PD-1-Fc (Bio-PD1), OD 450nm; lower left panel (with Hu47C6A3-3)
Protocol: as §3

[19] = target: T3, human PD-L1-Fc protein; assay: receptor blocking ELISA: coated human PD-L1-Fc, blocked ligand biotin-labeled human PD-1-Fc (Bio-PD1), OD 450nm; upper right panel (with Hu47C6A3-2)
Protocol: as §3

[20] = target: T3, human PD-L1-Fc protein; assay: receptor blocking ELISA: coated human PD-L1-Fc, blocked ligand biotin-labeled human CD80-Fc (Bio-CD80), OD 450nm; lower left panel (with Hu47C6A3-3)
Protocol: as §3

[21] = target: T3, human PD-L1-Fc protein; assay: receptor blocking ELISA: coated human PD-L1-Fc, blocked ligand biotin-labeled human CD80-Fc (Bio-CD80), OD 450nm; upper left panel (with Hu47C6A3-1)
Protocol: as §3

[22] = target: T3, human PD-L1-Fc protein; assay: receptor blocking ELISA: coated human PD-L1-Fc, blocked ligand biotin-labeled human CD80-Fc (Bio-CD80), OD 450nm; upper right panel (with Hu47C6A3-2)
Protocol: as §3

T3 sequence (Q9NZQ7 19-238 limits assumed): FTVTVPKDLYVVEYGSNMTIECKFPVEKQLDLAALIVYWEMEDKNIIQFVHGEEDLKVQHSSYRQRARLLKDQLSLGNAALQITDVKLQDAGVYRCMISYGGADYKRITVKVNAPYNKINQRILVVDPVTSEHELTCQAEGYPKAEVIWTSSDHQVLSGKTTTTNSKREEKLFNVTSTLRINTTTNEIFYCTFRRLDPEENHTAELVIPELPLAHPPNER
T1 sequence (Q9NZQ7 19-238 limits assumed): as above
T2 sequence (Q9NZQ7 19-290): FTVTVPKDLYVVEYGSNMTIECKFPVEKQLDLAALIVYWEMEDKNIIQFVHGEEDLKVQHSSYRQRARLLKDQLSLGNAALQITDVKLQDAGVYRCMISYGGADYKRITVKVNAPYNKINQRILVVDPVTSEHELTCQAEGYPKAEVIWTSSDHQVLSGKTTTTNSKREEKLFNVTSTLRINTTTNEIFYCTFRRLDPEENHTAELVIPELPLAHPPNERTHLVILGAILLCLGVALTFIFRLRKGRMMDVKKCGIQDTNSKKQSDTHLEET
Sequence of mouse PD-L1 protein (Q9EP73 19-239 limits assumed): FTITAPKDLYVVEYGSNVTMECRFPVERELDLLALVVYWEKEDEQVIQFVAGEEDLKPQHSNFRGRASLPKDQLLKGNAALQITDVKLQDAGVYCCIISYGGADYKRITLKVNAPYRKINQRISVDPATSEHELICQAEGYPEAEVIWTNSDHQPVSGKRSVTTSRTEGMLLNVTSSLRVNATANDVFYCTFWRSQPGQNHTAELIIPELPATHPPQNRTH
Sequence of rat PD-L1 protein (D4AE25 entry or part of it limits assumed): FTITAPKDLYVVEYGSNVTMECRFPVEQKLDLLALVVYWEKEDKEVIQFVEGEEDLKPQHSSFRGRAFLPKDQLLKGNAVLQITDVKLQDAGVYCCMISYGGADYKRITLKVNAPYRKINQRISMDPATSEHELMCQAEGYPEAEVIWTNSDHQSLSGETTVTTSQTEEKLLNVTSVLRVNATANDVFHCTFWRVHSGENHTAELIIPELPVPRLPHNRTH
Sequence of cynomolgus PD-L1 protein (G7PSE7 entry or part of it): as the sequence (Q9NZQ7 19-238 limits assumed) above, with A33T, A34S, S62N, R68Q, Q82R, F173L, T185A, T192I, H215L counted along it

Kd [1]: 0.037 nM
koff [1]: 9.71e-05 s⁻¹
kon [1]: 2.62e+06 M⁻¹ s⁻¹
EC50 [2]: 0.115 nM
Kd [3]: 0.0431 nM
koff [3]: 7.92e-05 s⁻¹
kon [3]: 1.84e+06 M⁻¹ s⁻¹
EC50 [4]: 0.0133 µg/mL
IC50 [5]: 0.127 µg/mL
IC50 [6]: 0.344 µg/mL
B1: Hu67F3G7-5 (antibody, V domains shown)
VH: EVQLVQSGAEVKKPGASVKVSCKASGYIFTDFWVSWVRQAPGKGLEWIGEIYPNSGVSRYNEKFKGRVTMTVDKSISTAYMELSRLRSDDTAVYYCTKYFGYTYWFGYWGQGTLVTVSS
VL: DIQMTQSPSSLSASVGDRVTITCRASKSVSTYMHWYQQKPGKAPKLLIYSASHLESGVPSRFSGSGSGTDFTLTISSLQPEDFATYYCQQSNELPVTFGGGTKVEIK
notes: humanized

EC50 [9]: 0.148 nM
EC50 [10]: 0.00634 µg/mL
EC50 [11]: 0.0102 µg/mL
Kd [12]: 0.366 nM
koff [12]: 0.000678 s⁻¹
kon [12]: 1.85e+06 M⁻¹ s⁻¹
IC50 [13]: 0.0912 µg/mL
EC50 [14]: 0.113 nM
EC50 [15]: 0.0176 µg/mL
EC50 [16]: 0.0115 µg/mL
EC50 [17]: 0.0124 µg/mL
IC50 [18]: 0.099 µg/mL
IC50 [19]: 0.0857 µg/mL
IC50 [20]: 0.439 µg/mL
IC50 [21]: 0.436 µg/mL
IC50 [22]: 0.395 µg/mL
B2: 47C6A3 chimeric mAb (antibody, V domains shown)
VH: DVQLQESGPGLVKPSQSLSLTCTVTGYSITSDYAWNWIRQFPGNKLEWMGYIIYSGSTSYNPSLKSRISITRDTSKNQFFLQLNSVTTEDTATYYCARSTMIATNWFAYWGQGTLVTVSA
VL: DIVMTQSHKFMSTSVVDRVSITCKASQDVSLAVAWYQQKPGQSPKLLIYWASTRHTGVPDRFTGSGSGTDFALTISSVQAEDLALYYCQQHYITPWTFGGGTKLEIK
notes: chimeric mAb of the hybridoma clone; also called 47C6A3-chimera
binding result [7]: no binding (tested: dilutions starting from 10 µg/ml)
binding result [8]: no binding (tested: dilutions starting from 10 µg/ml)

Source: US20230287125A1 (LEPU BIOPHARMA, published 2023)
